The numbers were not newly measured in patent US20140295424, which cites them from elsewhere.

The subject of this data set is IgE (human myeloma IgE) (Homo sapiens). The conditions noted are these: CITED; KD stated for purchased aptamer D17.4, no measurement described; cited from earlier work.

In general, Kd refers to the free concentration of one partner at which half of the binding sites on the other are occupied at equilibrium, for simple one-to-one binding. “GCCTGTTGTGAGCCTCCTGTCGAAGCACGTTTATCCGTCCCTCCTAGTGGCGTGCTTGAGCGTTTATTCTTGTCTCCC [IgE aptamer D17.4]”: the Kd is 0.01 µM.
